Results from US20180244756A1 (US Dept. of Health and Human Services, published 2018).

T1: MERS-CoV S1 protein, England1 strain, soluble (MERS-CoV, England1 strain, UniProt K9N5Q8 19-752)
T1 sequence: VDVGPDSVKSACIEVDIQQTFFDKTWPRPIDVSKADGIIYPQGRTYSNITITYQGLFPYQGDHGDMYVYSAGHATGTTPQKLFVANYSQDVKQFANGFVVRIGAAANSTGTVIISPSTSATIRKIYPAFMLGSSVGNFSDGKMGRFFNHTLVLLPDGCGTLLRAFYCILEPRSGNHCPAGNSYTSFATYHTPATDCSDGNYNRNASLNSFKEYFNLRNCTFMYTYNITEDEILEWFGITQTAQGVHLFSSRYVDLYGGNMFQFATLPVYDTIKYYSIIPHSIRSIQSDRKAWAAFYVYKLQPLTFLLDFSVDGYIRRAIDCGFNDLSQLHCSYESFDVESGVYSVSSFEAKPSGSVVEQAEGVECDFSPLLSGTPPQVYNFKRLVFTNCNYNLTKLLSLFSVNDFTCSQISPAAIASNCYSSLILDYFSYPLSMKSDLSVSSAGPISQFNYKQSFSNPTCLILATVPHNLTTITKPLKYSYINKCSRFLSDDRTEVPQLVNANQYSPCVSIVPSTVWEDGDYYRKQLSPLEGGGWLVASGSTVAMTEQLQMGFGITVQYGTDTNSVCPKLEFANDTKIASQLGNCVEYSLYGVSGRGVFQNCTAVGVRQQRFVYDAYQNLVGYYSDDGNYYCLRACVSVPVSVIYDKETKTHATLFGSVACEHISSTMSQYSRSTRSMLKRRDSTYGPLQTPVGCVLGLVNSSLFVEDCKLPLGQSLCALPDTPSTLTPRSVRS

T2: MERS-CoV Spike (S) glycoprotein, England1 strain, full length (MERS-CoV, England1 strain, UniProt K9N5Q8 19-1353)
T2 sequence: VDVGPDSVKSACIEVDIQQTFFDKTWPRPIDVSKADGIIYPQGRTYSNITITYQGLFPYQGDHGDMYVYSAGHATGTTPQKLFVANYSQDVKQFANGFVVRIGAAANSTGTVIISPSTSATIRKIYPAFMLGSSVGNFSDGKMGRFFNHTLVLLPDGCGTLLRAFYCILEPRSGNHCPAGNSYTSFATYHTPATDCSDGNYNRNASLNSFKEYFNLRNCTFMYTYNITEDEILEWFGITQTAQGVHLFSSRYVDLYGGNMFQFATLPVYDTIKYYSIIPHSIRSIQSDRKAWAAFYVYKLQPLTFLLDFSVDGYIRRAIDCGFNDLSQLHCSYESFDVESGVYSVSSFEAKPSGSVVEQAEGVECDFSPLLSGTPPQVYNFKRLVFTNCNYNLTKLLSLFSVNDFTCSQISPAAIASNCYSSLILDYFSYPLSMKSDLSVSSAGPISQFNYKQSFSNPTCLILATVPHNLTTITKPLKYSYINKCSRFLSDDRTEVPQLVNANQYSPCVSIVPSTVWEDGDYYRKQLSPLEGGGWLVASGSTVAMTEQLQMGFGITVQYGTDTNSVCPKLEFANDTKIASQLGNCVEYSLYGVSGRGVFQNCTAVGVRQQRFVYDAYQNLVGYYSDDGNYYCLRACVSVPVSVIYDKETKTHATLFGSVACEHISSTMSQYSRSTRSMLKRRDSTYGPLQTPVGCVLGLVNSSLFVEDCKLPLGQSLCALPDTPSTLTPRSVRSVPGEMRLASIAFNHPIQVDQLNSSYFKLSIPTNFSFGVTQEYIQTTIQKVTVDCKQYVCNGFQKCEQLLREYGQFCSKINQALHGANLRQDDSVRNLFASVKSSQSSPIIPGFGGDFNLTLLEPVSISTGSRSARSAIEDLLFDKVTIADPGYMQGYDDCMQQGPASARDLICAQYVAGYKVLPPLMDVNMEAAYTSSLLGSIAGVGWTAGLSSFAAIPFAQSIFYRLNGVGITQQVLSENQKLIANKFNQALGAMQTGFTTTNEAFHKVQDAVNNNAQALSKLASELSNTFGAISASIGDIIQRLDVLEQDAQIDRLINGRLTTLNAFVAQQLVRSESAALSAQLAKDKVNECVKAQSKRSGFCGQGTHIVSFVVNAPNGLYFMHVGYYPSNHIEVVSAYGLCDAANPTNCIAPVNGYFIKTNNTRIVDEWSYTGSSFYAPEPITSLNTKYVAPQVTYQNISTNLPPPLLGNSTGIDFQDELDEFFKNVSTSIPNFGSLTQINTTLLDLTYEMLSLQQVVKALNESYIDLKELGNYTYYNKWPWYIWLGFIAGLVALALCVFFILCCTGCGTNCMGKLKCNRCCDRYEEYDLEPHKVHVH

B1: FIB_B2 NHP antibody (antibody, V domains shown)
VH: QVQLQESGPGLVKPSETLSLTCAVSGGSISSNYWYWIRQSPVKGLEWIGYIYGGSGGTEYNPSLKSRVTISTDTSKNQFFLKLSSVTAADTAVYYCARSFYSWNGESWGQGVVVTVSS
VL: DIQMSQTPSSLSASVGDRVTITCRASQGINDYLNWYQQKPGKAPKLLIYYGNSLASGVPSRFSGSGSGTDFSLTISSLQPEDFATYYCQQGDSFPLTFGGGTKVDIK
B2: MERS-CoV S protein receptor binding domain (RBD), England1 strain, soluble (other)
chain: EAKPSGSVVEQAEGVECDFSPLLSGTPPQVYNFKRLVFTNCNYNLTKLLSLFSVNDFTCSQISPAAIASNCYSSLILDYFSYPLSMKSDLSVSSAGPISQFNYKQSFSNPTCLILATVPHNLTTITKPLKYSYINKCSRFLSDDRTEVPQLVNANQYSPCVSIVPSTVWEDGDYYRKQLSPLEGGGWLVASGSTVAMTEQLQMGFGITVQYGTDTNSVCPKLEFANDTKIASQLGNCVEY
B3: FIB_H1 NHP antibody (antibody, V domains shown)
VH: EVQLVQSGAEVKKPGASVKVSCKASGHIFTSYVINWLQEAPGQGFEWMGGIHPGNGGRDYAQKFQGRVTITADMSTSTVYMELRSLRSEDMAVYYCAASSGSYGVSSLDVWGRGVLVTVSS
VL: QSALTQPPSLSASPGASARLPCTLSSDLSVGSKNMYWYQQKPGSAPRLFLYYYSDSDKQLGPGVPNRVSGSKETSSNTAFLLISGLQPEDEADYYCQVYDSSANWVFGGGTRLTVL
B4: A10 human antibody (antibody, V domains shown)
VH: QVQLVQSGAEVKKPGSSVKVSCKASGGTFSTYALSWVRQAPGQGLEWMGGIIPIFGTANYAQKFQGRVTITADESTSTAYMELNSLRSEDTAVYYCARGSRSSSSAEYFQHWGQGTLVTVSS
VL: QSALTQPRSVSGSPGQSVTISCTGTSSDVGGYNYVSWYQQHPGKAPKLMIYDVSKRPSGVPDRFSGSKSGNTASLTISGLQAEDEADYYCCSYAGSYTLEVVFGGGTKLTVL
B5: F11 antibody (antibody, V domains shown)
VH: EVKLEESGGGLVKPGGSLKLSCAASGFTFSRYAMSWVRQTPEKRLEWVATINNGGSYSYYPDSVKGRLTISRDNAKNTLYLQMSSLRSEDTALYYCARHYDYDGYYYTMDFWGQGTSVTVSS
VL: DVLMTQIPLSLPVSLGDQASISCRSSQSIVHSNGNTYLEWYLQKPGQSPKPLIYKVSNRISGVPDRFSGSGSGTDFTLKISRVEAEDLGVYYCFQGSHVPYTFGGGTNLEIKR
B6: A2 human antibody (antibody, V domains shown)
VH: QVQLVESGGGLVKPGGSLRLSCAASGFTFSDYYMSWIRQAPGKGLEWVSYISSSGSTIYYADSVKGRFTISRDNAKNSLYLQMNSLRAEDTAVYYCARVGLGSGWYDWFDPWGQGTLVTVSS
VL: QSALTQPPSVSGAPGQRVTISCTGSSSNIGASYDVHWYQHLPGTAPKLLIYGNTNRPSGVPDRFSGSKSGTSASLAITGLQAEDEADYYCQSYDSSLSGVVFSGGTKLTVL
B7: G4 antibody (antibody, V domains shown)
VH: QVQLQQSGPELVRPGVSVKISCKGSGYTFTDYAIHWVKQSHAKSLEWIGVFSTYYGNTNYNQKFKGRATMTVDKSSSTAYMELARLTSEDSAIYYCARKSYYVDYVDAMDYWGQGTSVTVSS
VL: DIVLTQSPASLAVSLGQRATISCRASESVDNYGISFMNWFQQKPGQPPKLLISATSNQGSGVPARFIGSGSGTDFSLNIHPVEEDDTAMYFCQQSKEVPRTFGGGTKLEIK
B8: G2 antibody (antibody, V domains shown)
VH: QVQLQQSGGELVKPGASVKLSCKTSGFTFSSSYISWLKQKPGQSLEWIAWIYAGTGGTEYNQKFTGKAQVTVDTSSSTAYMQFSSLTTEDSAIYYCARGGSSFAMDYWGQGTSVTVSS
VL: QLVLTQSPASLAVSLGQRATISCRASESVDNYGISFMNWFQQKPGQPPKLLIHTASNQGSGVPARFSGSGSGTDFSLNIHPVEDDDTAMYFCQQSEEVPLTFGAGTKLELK

Legend:
[1] = biological target: T1, MERS-CoV S1 protein, England1 strain, …; experiment: ELISA on RBD, S1 or S2 coated plates
[2] = biological target: B2; experiment: ELISA on RBD coated plates
D12 antibody = experiment: cell-based or functional assay
[3] = biological target: B2; experiment: ELISA specificity (FIG. 22), told only by this label
[4] = biological target: T2, MERS-CoV Spike (S) glycoprotein, …; experiment: cell-based or functional assay
[5] = biological target: T1, MERS-CoV S1 protein, England1 strain, …; experiment: ELISA, hybridoma supernatant
[6] = biological target: B2; experiment: ELISA on RBD, mAb titrated 0.0032-10 µg/ml
[7] = biological target: B2
[8] = biological target: T1, MERS-CoV S1 protein, England1 strain, …
[9] = biological target: B2; experiment: ELISA; x axis 'Protein concentration (µg/ml)'
[10] = biological target: T1, MERS-CoV S1 protein, England1 strain, …; experiment: ELISA; x axis 'Protein concentration (µg/ml)'
[11] = biological target: T2, MERS-CoV Spike (S) glycoprotein, …; experiment: cell-based or functional assay; remark: listed apart in the source
[12] = biological target: B2; experiment: ELISA, hybridoma supernatant

Sequence of D12 antibody (VH, as listed by the source, chain 1 of 2): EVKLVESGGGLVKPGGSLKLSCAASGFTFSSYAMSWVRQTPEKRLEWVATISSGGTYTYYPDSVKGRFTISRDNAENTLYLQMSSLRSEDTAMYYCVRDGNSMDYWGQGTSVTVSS
Sequence of D12 antibody (VL, as listed by the source, chain 2 of 2): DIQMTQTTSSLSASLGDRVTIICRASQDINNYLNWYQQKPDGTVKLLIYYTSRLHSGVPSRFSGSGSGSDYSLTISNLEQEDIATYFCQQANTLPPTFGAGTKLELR

B1
binding result [1]: binds
binding result [2]: no binding

B2
IC50 (read off the curve) (D12 antibody): ~2 µg/mL

B3
binding result [2]: no binding

B4
binding result [3]: no binding

B5
IC50 [4]: 0.008 µg/mL
IC80 [4]: 0.052 µg/mL
ELISA (unit not given) [5]: 2.67
EC50 (read off the curve) [6]: ~0.05 µg/mL
Kd [7]: 114 nM
koff [7]: 0.0079 s⁻¹
kon [7]: 69100 M⁻¹ s⁻¹
Kd [8]: 3.49 nM
koff [8]: 0.000391 s⁻¹
kon [8]: 112000 M⁻¹ s⁻¹

B6
binding result [3]: no binding

B7
IC50 [4]: 0.133 µg/mL
IC80 [4]: 0.806 µg/mL
binding result [9]: no binding (tested: 10 µg/ml)
binding result [10]: no binding (tested: 10 µg/ml)
pseudotyped MERS-CoV (England1) virus neutralization potency [11]: ~10 fold lower
ELISA (unit not given) [12]: 0.05
ELISA (unit not given) [5]: 0.06

B8
IC50 [4]: 0.013 µg/mL
IC80 [4]: 0.35 µg/mL
EC50 (read off the curve) [10]: ~0.09 µg/mL
ELISA (unit not given) [12]: 0.04
binding result [12]: no binding (tested: not given (supernatant))
Kd [8]: 1.69 nM
koff [8]: 0.000188 s⁻¹
kon [8]: 111000 M⁻¹ s⁻¹
